The target of this data set is EjERF39 (Eriobotrya japonica cv. Luoyangqing …, UniProt A0A482LZG5 1-253). Kind of data set: EMSA; not given in the material; EMSA as described by Ge et al. (2017). As to conditions: protein: recombinant; tags: GST (pGEX-4T-1); label: 3' biotin. For orientation: Mobility shift assays separate free from complexed probe on a gel.
Chain of EjERF39 (A0A482LZG5 entry or part of it): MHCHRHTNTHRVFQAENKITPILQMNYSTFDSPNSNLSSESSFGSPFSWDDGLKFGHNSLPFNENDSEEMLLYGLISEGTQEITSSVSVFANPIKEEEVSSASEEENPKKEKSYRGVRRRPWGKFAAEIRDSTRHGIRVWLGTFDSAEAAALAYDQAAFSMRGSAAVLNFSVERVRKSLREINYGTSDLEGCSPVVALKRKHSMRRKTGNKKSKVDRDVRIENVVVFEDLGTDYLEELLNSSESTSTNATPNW

B1: Ej4CL1 promoter DRE2 probe (dsDNA)
DNA 1: GTTCACAAGACAATCTGGCCGACCTCTTCACAAAATCAGT
DNA 2: ACTGATTTTGTGAAGAGGTCGGCCAGATTGTCTTGTGAAC
Turning to B1, the binding result was “binds”.

B2: Ej4CL1 promoter DRE1 probe (dsDNA)
DNA 1: TCGCCTTGTTGGTTATGCCGACGCAGGATACTTGTCTG
DNA 2: CAGACAAGTATCCTGCGTCGGCATAACCAACAAGGCGA
Consider B2, for which the binding result is “no binding”.
